Measurements published in publication PMC10613257, “Cryo-EM structure of human PAPP-A2 and mechanism of substrate recognition” (Communications Chemistry, 2023).

Target: the molecule itself
Assay: SEC; Superose 6 Increase 10/300 in 1X PBS

B1: Pregnancy-Associated Plasma Protein A (PAPP-A), wild type (enzyme, UniProt Q13219 82-1627, looked up)
chain: EARGATEEPSPPSRALYFSGRGEQLRLRADLELPRDAFTLQVWLRAEGGQRSPAVITGLYDKCSYISRDRGWVVGIHTISDQDNKDPRYFFSLKTDRARQVTTINAHRSYLPGQWVYLAATYDGQFMKLYVNGAQVATSGEQVGGIFSPLTQKCKVLMLGGSALNHNYRGYIEHFSLWKVARTQREILSDMETHGAHTALPQLLLQENWDNVKHAWSPMKDGSSPKVEFSNAHGFLLDTSLEPPLCGQTLCDNTEVIASYNQLSSFRQPKVVRYRVVNLYEDDHKNPTVTREQVDFQHHQLAEAFKQYNISWELDVLEVSNSSLRRRLILANCDISKIGDENCDPECNHTLTGHDGGDCRHLRHPAFVKKQHNGVCDMDCNYERFNFDGGECCDPEITNVTQTCFDPDSPHRAYLDVNELKNILKLDGSTHLNIFFAKSSEEELAGVATWPWDKEALMHLGGIVLNPSFYGMPGHTHTMIHEIGHSLGLYHVFRGISEIQSCSDPCMETEPSFETGDLCNDTNPAPKHKSCGDPGPGNDTCGFHSFFNTPYNNFMSYADDDCTDSFTPNQVARMHCYLDLVYQGWQPSRKPAPVALAPQVLGHTTDSVTLEWFPPIDGHFFERELGSACHLCLEGRILVQYASNASSPMPCSPSGHWSPREAEGHPDVEQPCKSSVRTWSPNSAVNPHTVPPACPEPQGCYLELEFLYPLVPESLTIWVTFVSTDWDSSGAVNDIKLLAVSGKNISLGPQNVFCDVPLTIRLWDVGEEVYGIQIYTLDEHLEIDAAMLTSTADTPLCLQCKPLKYKVVRDPPLQMDVASILHLNRKFVDMDLNLGSVYQYWVITISGTEESEPSPAVTYIHGSGYCGDGIIQKDQGEQCDDMNKINGDGCSLFCRQEVSFNCIDEPSRCYFHDGDGVCEEFEQKTSIKDCGVYTPQGFLDQWASNASVSHQDQQCPGWVIIGQPAASQVCRTKVIDLSEGISQHAWYPCTISYPYSQLAQTTFWLRAYFSQPMVAAAVIVHLVTDGTYYGDQKQETISVQLLDTKDQSHDLGLHVLSCRNNPLIIPVVHDLSQPFYHSQAVRVSFSSPLVAISGVALRSFDNFDPVTLSSCQRGETYSPAEQSCVHFACEKTDCPELAVENASLNCSSSDRYHGAQCTVSCRTGYVLQIRRDDELIKSQTGPSVTVTCTEGKWNKQVACEPVDCSIPDHHQVYAASFSCPEGTTFGSQCSFQCRHPAQLKGNNSLLTCMEDGLWSFPEALCELMCLAPPPVPNADLQTARCRENKHKVGSFCKYKCKPGYHVPGSSRKSKKRAFKTQCTQDGSWQEGACVPVTCDPPPPKFHGLYQCTNGFQFNSECRIKCEDSDASQGLGSNVIHCRKDGTWNGSFHVCQEMQGQCSVPNELNSNLKLQCPDGYAIGSECATSCLDHNSESIILPMNVTVRDIPHWLNPTRVERVVCTAGLKWYPHPALIHCVKGCEPFMGDNYCDAINNRAFCNYDGGDCCTSTVKTKKVTPFPMSCDLQGDCACRDPQAQEHSRKDLRGYSHG
notes: PAPP-A, mature form of 1547 amino acids after processing of the pro-peptide. numbers count on: the mature protein; also called FL PAPP-A; dimeric PAPP-A; source: Expi293F, secreted into the culture medium, purified (anti-FLAG, Superose 6 SEC)
  stoichiometry N: 2
